Biological target: T1, recombinant Tie2-Fc fusion protein (R&D systems) (UniProt Q02763 23-745)
T1 construct: not shown: Fc part
Assay: Biacore 8K, Ang2 amine-coupled, Tie2-Fc as analyte, single-cycle kinetics

T1 sequence (Q02763 23-745 limits assumed): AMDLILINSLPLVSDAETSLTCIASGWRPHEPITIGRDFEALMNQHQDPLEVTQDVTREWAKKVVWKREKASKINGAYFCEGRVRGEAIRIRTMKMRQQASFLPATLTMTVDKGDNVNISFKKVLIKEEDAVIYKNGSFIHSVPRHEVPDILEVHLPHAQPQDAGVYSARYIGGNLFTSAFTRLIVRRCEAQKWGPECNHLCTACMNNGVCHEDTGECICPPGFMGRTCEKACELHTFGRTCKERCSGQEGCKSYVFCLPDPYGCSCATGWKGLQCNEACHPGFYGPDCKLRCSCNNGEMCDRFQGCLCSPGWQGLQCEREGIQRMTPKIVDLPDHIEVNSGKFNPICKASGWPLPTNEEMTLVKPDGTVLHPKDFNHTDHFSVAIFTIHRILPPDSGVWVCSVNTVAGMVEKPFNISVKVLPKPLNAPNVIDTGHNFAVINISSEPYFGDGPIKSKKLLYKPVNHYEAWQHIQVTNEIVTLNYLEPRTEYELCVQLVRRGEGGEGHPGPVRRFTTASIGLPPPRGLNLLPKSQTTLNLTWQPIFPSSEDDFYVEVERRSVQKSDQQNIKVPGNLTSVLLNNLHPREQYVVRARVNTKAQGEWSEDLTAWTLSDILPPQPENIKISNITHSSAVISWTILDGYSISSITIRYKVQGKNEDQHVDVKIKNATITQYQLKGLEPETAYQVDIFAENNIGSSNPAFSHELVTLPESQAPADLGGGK

Kd: 4.26 nM
B1: human recombinant Ang2 protein (ligand, UniProt O15123 19-496, looked up)
chain: YNNFRKSMDSIGKKQYQVQHGSCSYTFLLPEMDNCRSSSSPYVSNAVQRDAPLEYDDSVQRLQVLENIMENNTQWLMKLENYIQDNMKKEMVEIQQNAVQNQTAVMIEIGTNLLNQTAEQTRKLTDVEAQVLNQTTRLELQLLEHSLSTNKLEKQILDQTSEINKLQDKNSFLEKKVLAMEDKHIIQLQSIKEEKDQLQVLVSKQNSIIEELEKKIVTATVNNSVLQKQQHDLMETVNNLLTMMSTSNSAKDPTVAKEEQISFRDCAEVFKSGHTTNGIYTLTFPNSTEEIKAYCDMEAGGGGWTIIQRREDGSVDFQRTWKEYKVGFGNPSGEYWLGNEFVSQLTNQQRYVLKIHLKDWEGNEAYSLYEHFYLSSEELNYRIHLKGLTGTAGKISSISQPGNDFSTKDGDNDKCICKCSQMLTGGWWFDACGPSNLNGMYYPQRQNTNKFNGIKWYYWKGSGYSLKATTMMIRPADF
notes: also called rhAng2; angiopoietin-2

— patent WO2022059800A1 (dated 2022)
